Drawing on paper PMC6152951, this text covers stoichiometry N for one substance.

The target in this assay is Strep-Flag-FAS I, recombinant 4'-phosphopantetheinylated M. tuberculosis fatty acid synthase I (M. tuberculosis). The assay is described as follows: SEC; […] (100 mM potassium phosphate pH 7.2, 150 mM KCl, 1 mM TCEP, 1 mM EDTA); […]. (In gel filtration, larger molecules generally elute earlier.)

As usually defined, the stoichiometry N is the number of molecules, sites or subunits per partner or assembly. Turning to “Strep-Flag-FAS I, recombinant 4'-phosphopantetheinylated M. tuberculosis fatty acid synthase I (enzyme)”, the stoichiometry N worked out at 6.
